B1: HEEH_KT_rd6_0007 (parent)
chain: SIEEEIKKAEEAKEKGKTFIHGDFVATTEELLDELLKRLRKKL

Variants of: B1
Assay: folding stability dG (cDNA display proteolysis); higher = more stable
Details: PBS, room temperature

| Variant | folding stability dG [kcal/mol] |
| --- | --- |
| I20H | 0.961 |
| I20S | 0.913 |
| I20W | 1.13 |
| I20A | 1.03 |
| I20M | 0.979 |
| I20Q | 1.27 |
| I20K | 0.994 |
| I20C | 2.04 |
| I20N | 0.801 |
| I20V | 1.27 |
| I20P | 0.732 |
| I20Y | 1.02 |
| I20L | 0.842 |
| I20T | 1.25 |
| I20E | 0.927 |
| I20G | 0.637 |
| I20D | 0.774 |
| I20F | 0.891 |
| I20R | 0.918 |
| A26P | 0.691 |
| A26K | 0.515 |
| A26R | 0.603 |
| A26M | 0.854 |
| A26S | 0.724 |

| Variant | folding stability dG [kcal/mol] |
| --- | --- |
| A26V | 0.954 |
| A26H | 0.502 |
| A26D | 0.604 |
| A26W | 1.24 |
| A26Y | 1.6 |
| A26G | 0.7 |
| A26N | 0.638 |
| A26T | 0.686 |
| A26F | 1.2 |
| A26L | 1.03 |
| A26E | 0.506 |
| A26C | 1.24 |
| A26Q | 0.685 |
| A26I | 1.27 |
| G22M | 1.15 |
| G22Q | 0.893 |
| G22R | 0.665 |
| G22P | 0.931 |
| G22Y | 1.23 |
| G22D | 0.958 |
| G22H | 1.02 |
| G22I | 1.45 |
| G22L | 1.2 |
| G22W | 1.53 |

| Variant | folding stability dG [kcal/mol] |
| --- | --- |
| G22V | 1.09 |
| G22F | 1.14 |
| G22A | 0.902 |
| G22T | 0.814 |
| G22S | 0.873 |
| G22E | 1.12 |
| G22K | 0.822 |
| G22N | 0.979 |
| D23A | 1.26 |
| D23Q | 1.14 |
| D23C | 1.91 |
| D23F | 1.48 |
| D23P | 0.958 |
| D23K | 1.06 |
| D23L | 1.31 |
| D23E | 1.16 |
| D23W | 1.64 |
| D23M | 1.26 |
| D23V | 1.38 |
| D23R | 0.773 |
| D23I | 1.52 |
| D23Y | 1.3 |
| D23H | 1.02 |
| D23N | 1.4 |

| Variant | folding stability dG [kcal/mol] |
| --- | --- |
| D23G | 1.16 |
| D23T | 1.36 |
| D23S | 1.36 |
| E29L | 1.64 |
| E29P | 1.78 |
| E29R | 1.62 |
| E29K | 1.52 |
| E29F | 1.47 |
| E29A | 1.63 |
| E29S | 1.46 |
| E29H | 1.2 |
| E29D | 1.21 |
| E29C | 2.15 |
| E29M | 1.63 |
| E29Q | 1.41 |
| E29G | 1.32 |
| E29Y | 1.18 |
| E29I | 1.76 |
| E29V | 1.65 |
| E29W | 1.78 |
| E29N | 1.26 |
| E29T | 1.55 |
| H21S | 1.39 |
| H21I | 1.03 |

| Variant | folding stability dG [kcal/mol] |
| --- | --- |
| H21T | 0.971 |
| H21A | 0.946 |
| H21W | 1.78 |
| H21V | 1.04 |
| H21D | 0.707 |
| H21P | 0.759 |
| H21Y | 1.76 |
| H21Q | 1.03 |
| H21N | 0.77 |
| H21E | 0.742 |
| H21L | 1.29 |
| H21R | 0.838 |
| H21K | 0.812 |
| H21F | 1.52 |
| H21G | 0.81 |
| H21M | 1.08 |
| T27N | 1.98 |
| T27Y | 1.62 |
| T27L | 1.22 |
| T27H | 1.41 |
| T27F | 1.55 |
| T27C | 1.76 |
| T27S | 1.57 |
| T27E | 1.24 |

| Variant | folding stability dG [kcal/mol] |
| --- | --- |
| T27R | 0.962 |
| T27V | 1.09 |
| T27G | 1.08 |
| T27I | 1.11 |
| T27K | 1.09 |
| T27Q | 0.865 |
| T27A | 1.27 |
| T27M | 1.17 |
| T27P | 0.51 |
| T27D | 2.16 |
| T27W | 1.66 |
| T28K | 0.472 |
| T28P | 0.562 |
| T28Y | 0.985 |
| T28I | 1.31 |
| T28Q | 0.473 |
| T28L | 1.3 |
| T28W | 1.19 |
| T28M | 1.34 |
| T28F | 1.32 |
| T28G | 0.966 |
| T28C | 1.98 |
| T28V | 1.17 |
| T28E | 0.679 |

| Variant | folding stability dG [kcal/mol] |
| --- | --- |
| T28H | 0.534 |
| T28R | 0.557 |
| T28A | 0.936 |
| T28S | 1.15 |
| T28N | 1.09 |
| T28D | 0.797 |
| D33A | 1.22 |
| D33V | 1.17 |
| D33E | 1.34 |
| D33Q | 0.991 |
| D33S | 1.04 |
| D33P | -0.325 |
| D33W | 1.44 |
| D33Y | 1.28 |
| D33R | 1.37 |
| D33I | 1.35 |
| D33M | 1.17 |
| D33C | 1.98 |
| D33T | 1.1 |
| D33K | 1.23 |
| D33N | 1.27 |
| D33L | 1.23 |
| D33H | 1.04 |
| D33F | 1.32 |

| Variant | folding stability dG [kcal/mol] |
| --- | --- |
| D33G | 0.853 |
| V25L | 1.11 |
| V25I | 1.41 |
| V25Y | 1.23 |
| V25H | 1.28 |
| V25W | 1.39 |
| V25N | 0.974 |
| V25T | 0.907 |
| V25P | 0.68 |
| V25F | 1.31 |
| V25M | 1.18 |
| V25E | 1.05 |
| V25Q | 1.07 |
| V25G | 0.704 |
| V25K | 0.938 |
| V25A | 1.1 |
| V25C | 1.94 |
| V25R | 0.704 |
| V25S | 0.912 |
| V25D | 0.749 |
| F19N | 0.745 |
| F19R | 0.752 |
| F19Q | 0.715 |
| F19M | 0.895 |

| Variant | folding stability dG [kcal/mol] |
| --- | --- |
| F19E | 0.58 |
| F19K | 0.811 |
| F19D | 0.713 |
| F19G | 0.793 |
| F19Y | 1.49 |
| F19W | 0.964 |
| F19P | 0.637 |
| F19L | 0.751 |
| F19V | 0.861 |
| F19I | 0.902 |
| F19H | 0.937 |
| F19T | 0.77 |
| F19A | 0.757 |
| F19S | 0.618 |
| E30F | 1.13 |
| E30P | 0.673 |
| E30C | 1.63 |
| E30A | 1.41 |
| E30G | 0.9 |
| E30K | 1.24 |
| E30D | 1.17 |
| E30H | 1.15 |
| E30I | 0.954 |
| E30Y | 1.15 |

| Variant | folding stability dG [kcal/mol] |
| --- | --- |
| E30S | 1.12 |
| E30T | 1.09 |
| E30V | 0.976 |
| E30W | 1.42 |
| E30M | 1.05 |
| E30R | 1.19 |
| E30L | 1.14 |
| E30N | 0.882 |
| E30Q | 1.14 |
| L32D | 0.374 |
| L32M | 0.752 |
| L32Y | 1.22 |
| L32W | 0.894 |
| L32Q | 0.13 |
| L32R | 0.281 |
| L32T | 0.441 |
| L32N | 0.294 |
| L32P | 0.168 |
| L32E | 0.247 |
| L32C | 0.637 |
| L32H | 0.393 |
| L32K | 0.345 |
| L32V | 0.661 |
| L32F | 1.59 |

| Variant | folding stability dG [kcal/mol] |
| --- | --- |
| L32S | 0.285 |
| L32G | 0.372 |
| L32I | 1.46 |
| L32A | 0.414 |
| L31P | 0.452 |
| L31R | 0.535 |
| L31W | 0.95 |
| L31T | 0.882 |
| L31S | 0.841 |
| L31Q | 1.75 |
| L31A | 1.28 |
| L31N | 0.715 |
| L31D | 1.52 |
| L31H | 1.08 |
| L31M | 1.65 |
| L31Y | 0.721 |
| L31F | 0.877 |
| L31E | 2 |
| L31K | 0.756 |
| L31V | 0.71 |
| L31G | 0.74 |
| L31I | 0.938 |
| L36D | -0.448 |
| L36F | 0.757 |

| Variant | folding stability dG [kcal/mol] |
| --- | --- |
| L36K | -0.007 |
| L36M | 0.68 |
| L36G | 0.032 |
| L36H | 0.249 |
| L36A | 0.394 |
| L36E | -0.06 |
| L36N | 0.046 |
| L36I | 1.62 |
| L35K | 0.309 |
| L35H | 0.458 |
| L35F | 0.799 |
| L35P | -0.141 |
| L35W | 0.882 |
| L35I | 1.15 |
| L35Q | 0.486 |
| L35Y | 0.817 |
| L35N | 0.287 |
| L35T | 0.38 |
| L35R | 0.542 |
| L35E | 0.313 |
| L35D | 0.12 |
| L35G | 0.119 |
| L35S | 0.043 |
| L35M | 0.714 |

| Variant | folding stability dG [kcal/mol] |
| --- | --- |
| L35V | 0.702 |
| L35A | 0.494 |
| T18W | 1.76 |
| T18R | 1.09 |
| T18S | 1.21 |
| T18V | 1.48 |
| T18Y | 1.37 |
| T18Q | 1.28 |
| E34V | 0.952 |
| E34F | 1.4 |
| E34W | 1.86 |
| E34P | 0.383 |
| E34G | 0.737 |
| E34A | 1.19 |
| E34D | 0.87 |
| E34C | 1.64 |
| E34S | 0.84 |
| E34K | 1.11 |
| E34T | 1.02 |
| E34I | 1.36 |
| E34Q | 1.17 |
| E34L | 1.4 |
| E34N | 0.881 |
| E34R | 1.2 |

| Variant | folding stability dG [kcal/mol] |
| --- | --- |
| E34Y | 1.4 |
| E34M | 1.3 |
| E34H | 1.02 |
| F24L | 0.965 |
| F24D | 0.649 |
| F24M | 0.889 |
| F24K | 0.243 |
| F24N | 0.509 |
| F24P | 0.489 |
| F24Y | 1.02 |
| F24V | 0.78 |
| F24A | 0.492 |
| F24R | -0.367 |
| F24W | 1.22 |
| F24H | 0.746 |
| F24G | 0.708 |
| F24S | 0.627 |
| F24T | 0.846 |
| F24Q | 0.726 |
| F24I | 1.03 |
| F24C | 1.49 |
| F24E | 0.854 |
